From publication PMC5768722
pKd: −log10 of the molar value.

Molecular target: Pertuzumab Cλ variants
Test: BLI; antibody light chain variants pre-loaded on Anti-hIgG-Fc Capture (AHC) biosensors, Her2 at 100 nM to 6.25 nM, Octet QKe, 1x kinetic buffer

In the case of “HIS-tagged Her2 (recombinant extracellular portion) (from UniProt P04626 23-652) (domain or fragment)”, the pKd was 8.85 to 9.11.
